# Test results published in patent US12269859B2, “Synthetic immune receptors and methods of use thereof” (Angeles Therapeutics, Inc., priority 2016, dated 2025).
# Tested on: target antigen-expressing cell line
# Assay: Jurkat NFAT-GFP assay, coculture with target cell lines expressing the respective target antigen (summary Table 10A)
# Type: cell-based, human
# Parameters: key: The signs +/−, +, 2+ etc. after the name of the cell lines indicate the relative degree of positivity on the Jurkat-NFAT-GFP assay as measured by the % GFP positive cells; +: relative degree of positivity on the Jurkat-NFAT-GFP assay as measured by the % GFP positive cells; 2+: relative degree of positivity on the Jurkat-NFAT-GFP assay as measured by the % GFP positive cells
# Conditions: relative % GFP positive cells; for NFAT-GFP ASSAY Positive Cell lines: RAJI: SIR-expressing Jurkat-NFAT-GFP cells cocultured with RAJI
# Protocol: (B) Induction of NFAT promoter driven GFP expression. The control vector- and SIR-expressing Jurkat-NFAT-GFP cocultured for 4-24 hours with the target antigen-expressing cell line (described above) and their ability to bind to the target antigen is assayed by measuring induction of GFP expression using Flow Cytometry. Cellular supernatant is collected and assayed for the induction of cytokines (e.g., IL2).
# Jurkat NFAT-GFP Assay For Synthetic Immune Receptors. The Jurkat-NFAT-GFP cells are engineered in such a way that the IL-2 promoter, which carries NFAT binding sites, is cloned upstream of the GFP gene. These cells have been used to study signaling via TCR and CAR. The different SIRs were stably expressed in Jurkat NFAT-GFP cells by lentiviral mediated gene transfer, followed by selection with puromycin. The SIR-expressing Jurkat-NFAT-GFP cells were cocultured with the target cells at E:T ratio of approximately 1:2 for approximately 4 hours to 18 hours. When the interaction between SIRs and their target antigen results in activation of the NFAT pathway, GFP expression is induced.
# Induction of GFP expression by coculturing of Jurkat-NFAT-GFP cells expressing different SIR constructs and the different target cells was studied essentially as described previously (Wu, Roybal, Puchner, Onuffer, & Lim, 2015). GFP expression was monitored by FACS analysis. A few representative examples of this assay are shown in the FIG. 13A-B. In panel A, control Jurkat-NFAT-GFP cells or those expressing SIRs targeting CD19 (clone ID 051716-I08), MPL (Clone ID: 040716-A07) and BCMA (Clone ID: 011116-A07) were incubated with RAJI (top), HEL (middle) or U266 (bottom) cells, respectively. […] In panel B, Jurkat cells expressing SIR targeting CDH6 (Clone ID: 051716-J05), CD276 (Clone ID: 050516-Q06) and Her2/neu (Clone ID: 050516-I03) were incubated with SKOV3 (top) and […] (middle and bottom) cells, respectively. […] The Jurkat-NFAT-GFP cells were engineered to express different SIRs targeting other antigens and the experiment repeated upon coculture with the target cells expressing their respective target antigen. The Jurkat-NFAT-GFP (parental) cells were used as control. The names of different SIRs, their SEQ ID NOs, component antigen binding domains and TCR chains can be determined by reference to Tables 7A-7H. A SIR is considered positive in the assay in case the SIR expressing Jurkat-NFAT-GFP cells show greater % GFP positive cells when cultured with the target cell line as compared to parental Jurkat-NFAT-GFP cells. […] The signs +/−, +, 2+ etc. after the name of the cell lines indicate the relative degree of positivity on the Jurkat-NFAT-GFP assay as measured by the % GFP positive cells after culture of the SIR expressing Jurkat-NFAT-GFP cells with that cell line. […] In addition, great diversity of response against the same target cell line is observed with Jurkat cells expressing SIRs containing different antigen binding domains targeting the same antigen (e.g., SIRs having antigen binding domains derived form different CD19 antibodies) even when the SIRs share the same TCR chains and linkers. Finally, Jurkat cells expressing SIRs targeting different antigens (e.g. CD19 vs CD20) show a diversitiy of response when exposed to the same target cell line. Thus, a diverse immune response can be generated against a single target cell by combining SIRs with different TCR chains, linkers, antigen binding domains and target specificity. Table 10A also summarizes the results of GLuc based T cell cytotoxicity assay observed with different SIRs when exposed to their target cell lines. […]
Molecule,NFAT-GFP ASSAY Positive Cell lines: RAJI,NFAT-GFP ASSAY Positive Cell lines: HepG2 (SIR-expressing Jurkat-NFAT-GFP cells cocultured with HepG2),NFAT-GFP ASSAY Positive Cell lines: NALM6 (SIR-expressing Jurkat-NFAT-GFP cells cocultured with NALM6)
"072516-B05 (protein, Synthetic Immune Receptor (SIR)) MALPVTALLLPLALLLHAARPEIVMTQSPATLSLSPGERATLSCRASQDISKYLNWYQQKPGQAPRLLIYHTSRLHSGIPARFSGSGSGTDYTLTISSLQPEDFAVYFCQQGNTLPYTFGQGTKLEIKLEGKPIPNPLLGLDSTGSGEDLKNVFPPEVAVFEPSKAEIAHTQKATLVCLATGFYPDHVELSWWVNGKEVHSGVCTDPQPLKEQPALNDSRYCLSSRLRVSATFWQNPRNHFRCQVQFYGLSENDEWTQDRAKPVTQIVSAEAWGRADCGITSASYHQGVLSATILYEILLGKATLYAVLVSALVLMAMVKRKDSRGRAKRSGSGATNFSLLKQAGDVEENPGPTSMDWIWRILFLVGAATGAHSFEQVQLQESGPGLVKPSETLSLTCTVSGVSLPDYGVSWIRQPPGKGLEWIGVIWGSETTYYNSSLKSRVTISKDNSKNQVSLKLSSVTAADTAVYYCAKHYYYGGSYAMDYWGQGTLVTVSSTREQKLISEEDGSGIQNPDPAVYQLRDSKSSDKSVCLFTDFDSQTNVSQSKDSDVYITDKCVLDMRSMDFKSNSAVAWSNKSDFACANAFNNSIIPEDTFFPSSDVPCDVKLVEKSFETDTNLNFQNLSVIGFRILLLKVAGFNLLMTLRLWSSRAKRSGSGVKQTLNFDLLKLAGDVESNPGPSRGHMTEYKPTVRLATRDDVPRAVRTLAAAFADYPATRHTVDPDRHIERVTELQELFLTRVGLDIGKVWVADDGAAVAVWTTPESVEAGAVFAEIGPRMAELSGSRLAAQQQMEGLLAPHRPKEPAWFLATVGVSPDHQGKGLGSAVVLPGVEAAERAGVPAFLETSAPRNLPFYERLGFTVTADVEVPEGPRTWCMTRKPGA",RAJI(+/−),,
012617-N02 (protein) MALPVTALLLPLALLLHAARPLEGKPIPNPLLGLDSTGSGEDLKNVFPPEVAVFEPSKAEIAHTQKATLVCLATGFYPDHVELSWWVNGKEVHSGVCTDPQPLKEQPALNDSRYCLSSRLRVSATFWQNPRNHFRCQVQFYGLSENDEWTQDRAKPVTQIVSAEAWGRADCGITSASYHQGVLSATILYEILLGKATLYAVLVSALVLMAMVKRKDSRGRAKRSGSGATNFSLLKQAGDVEENPGPTSMALPVTALLLPLALLLHAARPQSVVTQPPSVSAAPGQKVTISCSGSSSNIGNNYVSWYQQLPGTAPKLLIYDNNKRPSGIPDRFSGSKSGTSATLGITGLQTGDEADYYCGTWDGSLYTMLFGGGTKLTVLGGGGSGGGGSGGGGSEVQLVESGGGLVKPGGSLRLSCAASGFTFSNAWMSWVRQAPGKGLEWVGFIRSKAYGGTTEYAASVKGRFTISRDDSKSIAYLQMNNLKTEDTAVYYCARDGLYSSSWYDSDYWGQGTLVTVSSTREQKLISEEDGSGIQNPDPAVYQLRDSKSSDKSVCLFTDFDSQTNVSQSKDSDVYITDKCVLDMRSMDFKSNSAVAWSNKSDFACANAFNNSIIPEDTFFPSSDVPCDVKLVEKSFETDTNLNFQNLSVIGFRILLLKVAGFNLLMTLRLWSSRAKRSGSGVKQTLNFDLLKLAGDVESNPGPSRGHMTEYKPTVRLATRDDVPRAVRTLAAAFADYPATRHTVDPDRHIERVTELQELFLTRVGLDIGKVWVADDGAAVAVWTTPESVEAGAVFAEIGPRMAELSGSRLAAQQQMEGLLAPHRPKEPAWFLATVGVSPDHQGKGLGSAVVLPGVEAAERAGVPAFLETSAPRNLPFYERLGFTVTADVEVPEGPRTWCMTRKPGA,,HepG2 (+/−),
"091216-K03 (protein, Synthetic Immune Receptor (SIR)) MALPVTALLLPLALLLHAARPLEGKPIPNPLLGLDSTGSGEDLKNVFPPEVAVFEPSKAEIAHTQKATLVCLATGFYPDHVELSWWVNGKEVHSGVCTDPQPLKEQPALNDSRYCLSSRLRVSATFWQNPRNHFRCQVQFYGLSENDEWTQDRAKPVTQIVSAEAWGRADCGITSASYHQGVLSATILYEILLGKATLYAVLVSALVLMAMVKRKDSRGRAKRSGSGATNFSLLKQAGDVEENPGPTSTMALPVTALLLPLALLLHAARPEIVMTQSPATLSLSPGERATLSCRASQDISKYLNWYQQKPGQAPRLLIYHTSRLHSGIPARFSGSGSGTDYTLTISSLQPEDFAVYFCQQGNTLPYTFGQGTKLEIKGGGGSGGGGSGGGGSQVQLQESGPGLVKPSETLSLTCTVSGVSLPDYGVSWIRQPPGKGLEWIGVIWGSETTYYNSSLKSRVTISKDNSKNQVSLKLSSVTAADTAVYYCAKHYYYGGSYAMDYWGQGTLVTVSSTREQKLISEEDGSGIQNPDPAVYQLRDSKSSDKSVCLFTDFDSQTNVSQSKDSDVYITDKCVLDMRSMDFKSNSAVAWSNKSDFACANAFNNSIIPEDTFFPSSDVPCDVKLVEKSFETDTNLNFQNLSVIGFRILLLKVAGFNLLMTLRLWSSRAKRSGSGVKQTLNFDLLKLAGDVESNPGPSRGHMTEYKPTVRLATRDDVPRAVRTLAAAFADYPATRHTVDPDRHIERVTELQELFLTRVGLDIGKVWVADDGAAVAVWTTPESVEAGAVFAEIGPRMAELSGSRLAAQQQMEGLLAPHRPKEPAWFLATVGVSPDHQGKGLGSAVVLPGVEAAERAGVPAFLETSAPRNLPFYERLGFTVTADVEVPEGPRTWCMTRKPGA",RAJI (+/−),,
101216-H03 (protein) MALPVTALLLPLALLLHAARPEIVMTQSPATLSLSPGERATLSCRASQDISKYLNWYQQKPGQAPRLLIYHTSRLHSGIPARFSGSGSGTDYTLTISSLQPEDFAVYFCQQGNTLPYTFGQGTKLEIKLEGKPIPNPLLGLDSTGSGEDLKNVFPPEVAVFEPSKAEIAHTQKATLVCLATGFYPDHVELSWWVNGKEVHSGVCTDPQPLKEQPALNDSRYCLSSRLRVSATFWQNPRNHFRCQVQFYGLSENDEWTQDRAKPVTQIVSAEAWGRADCGITSASYHQGVLSATILYEILLGKATLYAVLVSALVLMAMVKRKDSRGRAKRSGSGATNFSLLKQAGDVEENPGPTSMDWIWRILFLVGAATGAHSFEDIQMTQTTSSLSASLGDRVTISCRASQDISKYLNWYQQKPDGTVKLLIYHTSRLHSGVPSRFSGSGSGTDYSLTISNLEQEDIATYFCQQGNTLPYTFGGGTKLEITTREQKLISEEDGSGIQNPDPAVYQLRDSKSSDKSVCLFTDFDSQTNVSQSKDSDVYITDKCVLDMRSMDFKSNSAVAWSNKSDFACANAFNNSIIPEDTFFPSSDVPCDVKLVEKSFETDTNLNFQNLSVIGFRILLLKVAGFNLLMTLRLWSSRAKRSGSGVKQTLNFDLLKLAGDVESNPGPSRGHMTEYKPTVRLATRDDVPRAVRTLAAAFADYPATRHTVDPDRHIERVTELQELFLTRVGLDIGKVWVADDGAAVAVWTTPESVEAGAVFAEIGPRMAELSGSRLAAQQQMEGLLAPHRPKEPAWFLATVGVSPDHQGKGLGSAVVLPGVEAAERAGVPAFLETSAPRNLPFYERLGFTVTADVEVPEGPRTWCMTRKPGA,"RAJI(2+), NALM6(2+)",,"RAJI(2+), NALM6(2+)"
